Data taken from the supplement of paper PMC10126150.
± gives the standard deviation of the averaged measurements.

system: ATP; assay: switch fluorescence ratio, 500 uM ATP over buffer (Cy3 cluster intensity, sum of 5 cycles each) (fold (ratio)); higher = stronger signal-on switching upon ATP binding; sequences stand for … in TCGTCGGCAGCGTCAGATGTGTATAAGAGACAGTTTTTTTTTTTTTTTTTTTTTTTTT…TC; details: aptamer strand: ATP DNA aptamer (quencher-CACCTGGGGGAGTATTGCGGAGGAAGG + anchor), 100 nM annealed; ATP concentration: 500 uM
Procedure, shortened: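 Values give the fluorescence ratio for each switch-domain sequence, averaged from per-cluster ratios of summed target-cycle to summed buffer-cycle Cy3 intensity. The Cy3-labelled switching-strand clusters sat on a modified Illumina MiSeq flow-cell, were annealed to 100 nM quencher-labelled ATP aptamer, and were imaged in selection buffer, then after 15 min with 500 uM ATP at 22 °C. Five cycles ran with NaOH stripping and re-annealing between them, and clusters outside 100-1000 RFU were excluded.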
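Note: ATP exposure 15 min at 22 °C before imaging.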

GGGGCTCTAA and GTTTTGTGTA are the same in switch fluorescence ratio: 1.01 ± 0.038 for the first, 1.01 ± 0.074 for the second.

First: GCGCGTATAT
Second: GCTTGAGGGG
The switch fluorescence ratio of the first is higher: 1.07 ± 0.044 for the first, 1.012 ± 0.0022 for the second.

TGGGGATATG and TTCCATATCG are within error of each other in switch fluorescence ratio: 0.997 ± 0.019 for the first, 1.03 ± 0.061 for the second.

GCCTGCCGTT and TTGTTGCAAG are within error of each other in switch fluorescence ratio: 0.996 ± 0.033 for the first, 1.013 ± 0.0079 for the second.

First: AGGGATTGGT
Second: AAGGGGTGTG
The switch fluorescence ratio of the first is lower: 0.952 ± 0.019 for the first, 0.998 ± 0.013 for the second.

AGTTTTATTT and TAAAATAGTC are within error of each other in switch fluorescence ratio: 0.968 ± 0.032 for the first, 1.02 ± 0.034 for the second.

Compared with GATGGTGTGA, CTCTATAACT is higher in switch fluorescence ratio: 0.978 ± 0.014 for the first, 1.0133 ± 0.00043 for the second.

ATGGTAGGGT and ATTAATTCGT are within error of each other in switch fluorescence ratio: 1.01 ± 0.018 for the first, 0.996 ± 0.071 for the second.

AAGGGAACAA and AGATTTATCG are within error of each other in switch fluorescence ratio: 0.999 ± 0.048 for the first, 0.9781 ± 0.0027 for the second.

AGTTGGCGGG and CAGTTTGACC are within error of each other in switch fluorescence ratio: 1.018 ± 0.005 for the first, 0.987 ± 0.048 for the second.

AGGGGGCATG and ATTCGATATA are within error of each other in switch fluorescence ratio: 0.986 ± 0.023 for the first, 1.02 ± 0.014 for the second.

TTTTAGAATG and TTGATAACAA are within error of each other in switch fluorescence ratio: 1 ± 0.061 for the first, 1.04 ± 0.036 for the second.

ATCGGGGTCG and TTTGGGCGCC are within error of each other in switch fluorescence ratio: 1.05 ± 0.038 for the first, 1 ± 0.018 for the second.

TTTGGTGCCC and GTGTAGAGGG are within error of each other in switch fluorescence ratio: 1.03 ± 0.029 for the first, 1 ± 0.048 for the second.

CCTTGAACGG and AGTCTGAAGA are within error of each other in switch fluorescence ratio: 0.9606 ± 0.005 for the first, 0.987 ± 0.036 for the second.

TATCGTAGGG and GATGAATCGG are within error of each other in switch fluorescence ratio: 1 ± 0.022 for the first, 0.973 ± 0.012 for the second.

GGAAGTCCGG and TTAATTAAGT are within error of each other in switch fluorescence ratio: 1.03 ± 0.022 for the first, 0.987 ± 0.04 for the second.

AAACTAACTT and TAAAATATGG are within error of each other in switch fluorescence ratio: 1.01 ± 0.046 for the first, 1.06 ± 0.11 for the second.

GATATTTAAG and TTGGGATTTT are within error of each other in switch fluorescence ratio: 0.988 ± 0.042 for the first, 1.01 ± 0.033 for the second.

TGTGAGGCGG and TTTGTTCGTG are within error of each other in switch fluorescence ratio: 1.04 ± 0.11 for the first, 0.96 ± 0.028 for the second.

TTCAGGATAC and AAAGAACGGA are within error of each other in switch fluorescence ratio: 1.19 ± 0.043 for the first, 1.06 ± 0.095 for the second.

AAAAAGTTAG and GTTTGCCTCT are within error of each other in switch fluorescence ratio: 0.998 ± 0.023 for the first, 0.995 ± 0.012 for the second.

TTGAGATATG and AATTCGTGCG are within error of each other in switch fluorescence ratio: 0.9989 ± 0.0076 for the first, 0.9872 ± 0.0086 for the second.

First: ATGGAGCAGT
Second: TTGGTTGGAC
The switch fluorescence ratio of the first is higher: 1.6 ± 0.019 for the first, 1.028 ± 0.0092 for the second.

TTGGGGTTTT and TTAGCTGTTA are within error of each other in switch fluorescence ratio: 1.01 ± 0.037 for the first, 1 ± 0.016 for the second.

First: ATCGAACCTT
Second: TTCGGTACGT
The switch fluorescence ratio of the first is higher: 1.55 ± 0.45 for the first, 0.999 ± 0.0024 for the second.

TACGGGGACG and CCAGAACTTA are within error of each other in switch fluorescence ratio: 1.02 ± 0.026 for the first, 1.03 ± 0.026 for the second.

GCTTGCGGGA and TTCCAGCGGT are the same in switch fluorescence ratio: 1.03 ± 0.019 for the first, 1.03 ± 0.017 for the second.

TTTAAGGATA and CATCCGAGGT are within error of each other in switch fluorescence ratio: 0.9872 ± 0.0055 for the first, 1.14 ± 0.23 for the second.

ACCCATAGCG and AATGTAGACG are within error of each other in switch fluorescence ratio: 1.017 ± 0.0062 for the first, 0.997 ± 0.13 for the second.

GGGTGACGGG and AGTAAGATTT are within error of each other in switch fluorescence ratio: 1.01 ± 0.074 for the first, 1.16 ± 0.15 for the second.

CTTTTTTTTC and ACTCGGGCAG are within error of each other in switch fluorescence ratio: 1.03 ± 0.078 for the first, 0.9937 ± 0.002 for the second.

TTGCCAAATT and GAATCCAGTT are within error of each other in switch fluorescence ratio: 1.12 ± 0.13 for the first, 0.989 ± 0.02 for the second.

CGGAAGTTGG and CTCGGTTTAG are within error of each other in switch fluorescence ratio: 0.996 ± 0.02 for the first, 1 ± 0.038 for the second.

TGAGAAGTTT and TTGGTTTAGA are within error of each other in switch fluorescence ratio: 0.992 ± 0.023 for the first, 0.979 ± 0.028 for the second.

TAAAAAAGTT and TCTCATAGGT are within error of each other in switch fluorescence ratio: 1.12 ± 0.26 for the first, 1.04 ± 0.038 for the second.

GGGCAGGCGA and GATTAGGTTG are within error of each other in switch fluorescence ratio: 1.011 ± 0.0077 for the first, 0.968 ± 0.072 for the second.

TTTGCTTAAT and CAATCTTTAA are the same in switch fluorescence ratio: 1.02 ± 0.044 for the first, 1.02 ± 0.034 for the second.

ATCTGATGTC and TTTAACGATC are within error of each other in switch fluorescence ratio: 0.978 ± 0.018 for the first, 1.01 ± 0.035 for the second.

Compared with TCTATGACAA, CCAAGCATAG is higher in switch fluorescence ratio: 1.01 ± 0.039 for the first, 3.63 ± 0.47 for the second.

TGAGTTTTTA and GTGGACAACG are within error of each other in switch fluorescence ratio: 0.9956 ± 0.0072 for the first, 0.9924 ± 0.0099 for the second.

TTTGCCGAGG and TCAGAAAGGG are within error of each other in switch fluorescence ratio: 1.01 ± 0.015 for the first, 1.021 ± 0.0059 for the second.

AGGCTGTTCT and TTGCGGTGGG are within error of each other in switch fluorescence ratio: 0.991 ± 0.059 for the first, 1.03 ± 0.018 for the second.

First: ATTTCAGGTC
Second: GAATTTTGG
The switch fluorescence ratio of the first is higher: 1.02 ± 0.013 for the first, 0.9824 ± 0.0032 for the second.

GGTAATATTT and CGGTATTGTG are within error of each other in switch fluorescence ratio: 0.998 ± 0.031 for the first, 0.968 ± 0.028 for the second.

TTGAGAGGTT and TTGTAGGACC are within error of each other in switch fluorescence ratio: 1.02 ± 0.039 for the first, 1 ± 0.056 for the second.

TATTTATGGG and TATAAAAACT are within error of each other in switch fluorescence ratio: 0.978 ± 0.023 for the first, 1.01 ± 0.021 for the second.

First: AATCGGGGCG
Second: GGTAAAAGTT
The switch fluorescence ratio of the first is lower: 0.905 ± 0.016 for the first, 1.01 ± 0.022 for the second.

GCCGGTTAGA and AATTTGGGTT are within error of each other in switch fluorescence ratio: 0.998 ± 0.03 for the first, 1.04 ± 0.053 for the second.

AAGAGGCGGG and GATTTTGCGA are within error of each other in switch fluorescence ratio: 1 ± 0.019 for the first, 0.983 ± 0.033 for the second.

TCTAATTAGT and CTTTTAGGA are within error of each other in switch fluorescence ratio: 0.993 ± 0.013 for the first, 0.995 ± 0.021 for the second.

TCTATGGGGT and TGTTTTCGCA are the same in switch fluorescence ratio: 1 ± 0.019 for the first, 1 ± 0.021 for the second.

First: TAAGAAAAAA
Second: CGATCAATAT
The switch fluorescence ratio of the first is lower: 1.017 ± 0.0075 for the first, 2.38 ± 0.035 for the second.

GAATGTTCAG and ACGCGTGCGT are within error of each other in switch fluorescence ratio: 1.02 ± 0.024 for the first, 0.988 ± 0.016 for the second.

GGGGTTCAAT and AGGAATTGAA are within error of each other in switch fluorescence ratio: 0.976 ± 0.044 for the first, 0.982 ± 0.028 for the second.

ATTCATGGGA and TATAGCATCT are within error of each other in switch fluorescence ratio: 1.02 ± 0.031 for the first, 1.047 ± 0.01 for the second.

ATTCGCGCTG and GTAAGTGAGT are the same in switch fluorescence ratio: 0.994 ± 0.064 for the first, 0.994 ± 0.037 for the second.

CATTTGTGGA and ACACCGGGGG are within error of each other in switch fluorescence ratio: 1.003 ± 0.0062 for the first, 1.13 ± 0.17 for the second.

Going from TCAACGATAT to GGGTTTAGGT, the switch fluorescence ratio falls from 1.07 ± 0.075 to 0.981 ± 0.011.

TCAGAAGCGG and TTGGGATACG are within error of each other in switch fluorescence ratio: 1.3 ± 0.1 for the first, 1.18 ± 0.23 for the second.

Compared with CCATCGTACC, ATACGAAGGC is lower in switch fluorescence ratio: 1.3 ± 0.018 for the first, 0.985 ± 0.093 for the second.

CGTGAAAGTG and TAGGGATAGC are within error of each other in switch fluorescence ratio: 0.991 ± 0.019 for the first, 0.985 ± 0.013 for the second.

Compared with AGGTTACATC, CCCGTATACA is higher in switch fluorescence ratio: 1.018 ± 0.0016 for the first, 1.206 ± 0.0072 for the second.

First: GAGAAGAGGA
Second: TGGTACAAAA
The switch fluorescence ratio of the first is lower: 0.9918 ± 0.0021 for the first, 1.04 ± 0.025 for the second.

Compared with ATTTGCGAGG, TTAGGTGGAA is lower in switch fluorescence ratio: 1.01 ± 0.017 for the first, 0.976 ± 0.012 for the second.

TTGGTTTAAA and CAAGATGGGA are within error of each other in switch fluorescence ratio: 1 ± 0.022 for the first, 0.963 ± 0.082 for the second.

GCAAGAGTGA and AGGTACGTTT are within error of each other in switch fluorescence ratio: 1.04 ± 0.038 for the first, 1.03 ± 0.02 for the second.

GGCATTTTTC and AATGAGAGTT are within error of each other in switch fluorescence ratio: 0.999 ± 0.021 for the first, 0.9909 ± 0.0011 for the second.

First: TTCATAGGGG
Second: CAGGGGGGCC
The switch fluorescence ratio of the first is lower: 0.988 ± 0.015 for the first, 1.03 ± 0.02 for the second.

TTTTACGAGT and AGGGATTACG are within error of each other in switch fluorescence ratio: 1.06 ± 0.16 for the first, 1.01 ± 0.038 for the second.

CCAATGTATG and GGGGGCCACG are within error of each other in switch fluorescence ratio: 0.998 ± 0.044 for the first, 0.984 ± 0.022 for the second.

GCGAGAACGG and AGGGTTAAGT are within error of each other in switch fluorescence ratio: 1.01 ± 0.034 for the first, 1.002 ± 0.0061 for the second.

TTATGATTGT and CTAGTGGGGA are within error of each other in switch fluorescence ratio: 1.02 ± 0.03 for the first, 1.01 ± 0.017 for the second.

TTGTCCCTTT and CTTGTAACGG are within error of each other in switch fluorescence ratio: 0.9848 ± 0.0074 for the first, 0.975 ± 0.01 for the second.

GGTGGAGGTT and AGGGAAAAAT are within error of each other in switch fluorescence ratio: 1.02 ± 0.051 for the first, 1.06 ± 0.082 for the second.

TAGGTCTACG and GGGTCAGAGA are within error of each other in switch fluorescence ratio: 1.02 ± 0.019 for the first, 0.987 ± 0.019 for the second.

GACGGGATCA and AGGGAGATAA are within error of each other in switch fluorescence ratio: 1.02 ± 0.033 for the first, 1.14 ± 0.17 for the second.

Going from GATGTACCGC to AGGGCGGCTT, the switch fluorescence ratio falls from 1.12 ± 0.042 to 1 ± 0.032.

With GATTGGGTCC the switch fluorescence ratio was 1 ± 0.02.
